Molecular target: NS2 (recombinant) (Hepatitis C virus JFH1 (genotype 2a), UniProt Q99IB8 814-1030)
Experiment: ELONA; binding retained with excess yeast tRNA; ELONA: biotin-aptamer on streptavidin plates, protein 30 min at 37 C; washes PBS, 1 mM MgCl2, 0.1% BSA, 0.05% Tween-20; pH not stated
Details: tags: N-terminal His (pET-28b), label: biotin

Sequence of NS2 (recombinant) (Q99IB8 814-1030): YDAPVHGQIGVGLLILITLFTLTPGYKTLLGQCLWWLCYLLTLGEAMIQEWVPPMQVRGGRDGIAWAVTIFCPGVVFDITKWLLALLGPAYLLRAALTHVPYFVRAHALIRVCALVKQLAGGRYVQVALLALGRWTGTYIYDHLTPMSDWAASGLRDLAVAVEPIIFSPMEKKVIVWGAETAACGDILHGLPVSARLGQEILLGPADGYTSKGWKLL

Binder | binding result
CAGGTACCACCTTCATGGGCGCGGAAGACGATGGTGTACTA (ssDNA) [aptamer NS2-2] | binds
ACGGGGCAGGATTGTCCCCGCGCCTGGTTGAAGGTAGTCGC (ssDNA) [aptamer NS2-3] | binds
CTGGATCGAAAAGTATCCACGTTTGTCTGAAAATAGTGGCC (ssDNA) [aptamer NS2-1] | binds
